Data as given in a protein production outcome set (Wang et al. 2014).

test: label from the status in PepcDB records
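Note: failed if final PepcDB status was selected cloned or expressed and not failed if soluble or beyond.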

Sequence	protein production
MSLAKPIEAHTVSPVNPNAQQTTKTVMNWLAHLPNRTENRVLSGAFGGYSHDTFSMAEADRIRSATGQSPAIYGCDYARGWLETANIEDSIDVSCNGDLMSYWKNGGIPQISLHLANPAFQSGHFKTPITNDQYKKILDSSTVEGKRLNAMLSKIADGLQELENQGVPVLFRPLHEMNGEWFWWGLTSYNQKDNERISLYKQLYKKIYHYMTDTRGLDHLIWVYSPDANRDFKTDFYPGASYVDIVGLDAYFQDAYSINGYDQLTALNKPFAFTEVGPQTANGSFDYSLFINAIKQKYPKTIYFLAWNDEWSAAVNKGASALYHDSWTLNKGEIWNGDSLTPIVEEGHHHHHH	not failed
MSLANKPLAKALETISGIPITPFRKSDGSIDWHHYKETVDRIVDNGIDVIVPCGNTSEFYALSLEEAKEEVRRTVEYVHGRALVVAGIGYATSTAIELGNAAKAAGADAVMIHMPIHPYVTAGGVYAYFRDIIEALDFPSLVYFKDPEISDRVLVDLAPLQNLVGVKYAINDLPRFAKVVRSIPEEHQIAWICGTAEKWAPFFWHAGAKGFTSGLVNLLPQKAVEMLEALRNNDNDAVWRIWEDIVPFEDLRGKYNQGNNVVVIKEAMEMLRQNAGVTRAPVNELSNEDKQLVTELLSSWKLLQPTKGEGHHHHHH	not failed
MSLAPYRVDFILLEHFSMASFTVAMDVLVTANLLRADSFQFTPLSLDGDRVLSDLGLELVATELSAAALKELDLLVVCGGLRTPLKYPELDRLLNDCAAHGMALGGLWNGAWFLGRAGVLDDYGCSIHPEQRASLSERSPQTRITPASFTLDRDRLSAASPNGAMELMLGLVRRLYGDGLAEGVEEILSFSGAREGHHHHHH	not failed
MSLAQKLRQASSRLLGVVFELQQPFHGDLVEQIYAAATRRGYDVMLSAVAPSRAEKVAVQALMRERCEAAILLGTRFDTDELGALADRVPALVVARASGLPGVGAVRGDDVAGITLAVDHLTELGHRNIAHIDGADAPGGADRRAGFLAAMDRHGLSASATVVTGGTTETEGAEGMHTLLEMPTPPTAVVAFNDRCATGVLDLLVRSGRDVPADISVVGYDDSRLARIPHVQMTTISQDATHMAEAAVDGALAQISGDKAVDLVLAPHLVRRATTGPVAHREGHHHHHH	not failed
MSLAQYPVIGIDDDEFATAKKLITKQEVRAVTLSKLRLQDDLVMWDIGAGSASVSIEASNLMPNGRIFALERNPQYLGFIRDNLKKFVARNVTLVEAFAPEGLDDLPDPDRVFIGGSGGMLEEIIDAVDRRLKSEGVIVLNAVTLDTLTKAVEFLEDHGYMVEVACVNVAKTKGLTEYKMFESHNPVYIITAWKSDEGHHHHHH	not failed
MSLASLIGLAVCTGNAFSPALAAEAKQPNLVIIMADDLGYGDLATYGHQIVKTPNIDRLAQEGVKFTDYYAPAPLSSPSRAGLLTGRMPFRTGIRSWIPSGKDVALGRNELTIANLLKAQGYDTAMMGKLHLNAGGDRTDQPQAQDMGFDYSLANTAGFVTDATLDNAKERPRYGMVYPTGWLRNGQPTPRADKMSGEYVSSEVVNWLDNKKDSKPFFLYVAFTEVHSPLASPKKYLDMYSQYMSAYQKQHPDLFYGDWADKPWRGVGEYYANISYLDAQVGKVLDKIKAMGEEDNTIVIFTSDNGPVTREARKVYELNLAGETDGLRGRKDNLWEGGIRVPAIIKYGKHLPQGMVSDTPVYGLDWMPTLAKMMNFKLPTDRTFDGESLVPVLEQKALKREKPLIFGIDMPFQDDPTDEWAIRDGDWKMIIDRNNKPKYLYNLKSDRYETLNLIGKKPDIEKQMYGKFLKYKTDIDNDSLMKARGDKPEAVTWGEGHHHHHH	not failed
MSLASLPISNFFTFNHQSTLFTKVKNFMGVKHIGDCMKALINGTIYTSFSPVKKVSGLVISNERVLYAGDSSTALRIAELAGGEIIDLKGKFVMPAFFDSHLHLDELGMSLEMVDLRGVKSMEELVERVKKGRGRIIFGFGWDQDELGRWPTREDLDVIDRPVFLYRRCFHVAVMNSKMIDLLNLKPSKDFDESTGIVRERALEESRKIINEKILTVKDYKHYIESAQEHLLSLGVHSVGFMSVGEKALKALFELEREGRLKMNVFAYLSPELLDKLEELNLGKFEGRRLRIWGVKLFVDGSLGARTALLSEPYTDNPTTSGELVMNKDEIVEVIERAKPLGLDVAVHAIGDKAVDVALDAFEEAEFSGRIEHASLVRDDQLERIKELKVRISAQPHFIVSDWWIVNRVGEERAKWAYRLKTLSSITKLGFSTDSPIEPADPWVSIDAAVNRYVVDPGERVSREEALHLYTHGSAQVTLAEDLGKLERGFRAEYIILDRDPLKEMKGIITITTDPNSSSVDKLAAALEHHHHHH	not failed
MSLASYFIGVDVGTGSARAGVFDLQGRMVGQASREITMFKPKADFVEQSSENIWQAVCNAVRDAVNQADINPIQVKGLGFDATCSLVVLDKEGNPLTVSPSGRNEQNVIVWMDHRAITQAERINATKHPVLEFVGGVISPEMQTPKLLWLKQHMPNTWSNVGHLFDLPDFLTWRATKDETRSLCSTVCKWTYLGHEDRWDPSYFKLVGLADLLDNNAAKIGATVKPMGAPLGHGLSQRAASEMGLIPGTAVSVSIIDAHAGTIGILGASGVTGENANFDRRIALIGGTSTAHMAMSRSAHFISGIWGPYYSAILPEYWLNEGGQSATGALIDHIIQSHPCYPALLEQAKNKGETIYEALNYILRQMAGEPENIAFLTNDIHMLPYFHGNRSPRANPNLTGIITGLKLSTTPEDMALRYLATIQALALGTRHIIETMNQNGYNIDTMMASGGGTKNPIFVQEHANATGCAMLLPEESEAMLLGSAMMGTVAAGVFESLPEAMAAMSRIGKTVTPQTNKIKAYYDRKYRVFHQMYHDHMRYQALMQEGEGHHHHHH	not failed
MSLCINPQCSKPQNPDNVLFCQTCGSELLLEGRYRVVSVLGGGGFGKTFAVNDTRTQTARVLKVLINNHPKAVELFQREAQVLALLNYPGIPTVEANGYFVYFPRNIQEPMHCLIMEKIEGLDLGEYLRQRDYRPIDEKLALQWFKEVVTILHQVHQQGLFHRDIKPSNIMLRADGRLVLIDFGTARSVTGTYIAKQAVGQVTGVISAGYTPSEQINGQAVQQSDFFALGRTFIYLLTGKEPSDPTIYNYLKDELHWRDGLLSSESNSVPPTVGYGVPPTVGDRTNILPQFADLLDQMMERLPGQRPQNTHIILQRLADIEKNLHPSSPPPPKPKGWTRRRLITVVGFSSLGLTGALAISRLLPKTTVIVSQEGGGDYKTIGAAMQNAQPGMRILVRPGLYQESLVLDKALKIIGDGAKAEIIIESKGASCLVVKTDQAEIRGLTFRSRAGTENKQYFAVDISQGQIILADCDITSDSLSGIGIHGATANPVIQKCQIHDGKQSGIYLYENSRGTIEDCDLFGNTTTEITVDAAQPIIRRCKIRQDKEGGILFRNQAQGTVEDCDIFNNNLSGIEIRDSSNPIIQKCRIHDNQQGDGILVHLNGRGTVEDCNIFGNGFSGVEIRDRGNPVIRRCNINKNKYYGVYAYKNSMGTVENCDLTGNIRSAINVDETSQLQRSGNVELEHHHHHH	failed
MSLDCRERIEKDLELLEKNLMEMKSIKLSDDEEAVVERALNYRDDSVYYLEKGDHITSFGCITYAHGLLDSLRMLHRIIEGHHHHHH	not failed
MSLDIAVVGIGYVGLVSATCFAELGANVRCIDTDRNKIEQLNSGTIPIYEPGLEKMIARNVKAGRLRFGTEIEQAVPEADIIFIAVGTPAGEDGSADMSYVLDAARSIGRAMSRYILIVTKSTVPVGSYRLIRKAIQEELDKREVLIDFDIASNPEFLKEGNAIDDFMKPDRVVVGVDSDRARELITSLYKPMLLNNFRVLFMDIASAEMTKYAANAMLATRISFMNDVANLCERVGADVSMVRLGIGSDSRIGSKFLYPGCGYGGSCFPKDVKALIRTAEDNGYRMEVLEAVERVNEKQKSILFDKFSTYYKGNVQGRCVAIWGLSFKPGTDDMREAPSLVLIEKLLEVGCRVRVYDPVAMKEAQKRLGDKVEYTTDMYDAVRGAEALFHVTEWKEFRMPDWSALSQAMAASLVIDGRNVYELPADSDFTLLNIGNSAIESEGHHHHHH	not failed
MSLDIEQQFLNDLDNQLWRAADKLRSNLDAANYKHVVLGLIFLKYVSDAFEERQQELTELFQKDDDDNIYYLPREDYDSDEAYQQAIAEELEIGDYYTEKNVFWVPKTARWNKLRDVITLPTGSVIWQDEQGEDVKLRSVSWLIDNAFDDIEKANPKLKGILNRISQYQLDADKLIGLINEFSLTSFNNPEYNGEKLNLKSKDILGHVYEYFLGQFALAEGKQGGQYYTPKSIVTLIVEMLEPYKGRVYDPAMGSGGFFVSSDKFIEKHANVKHYNASEQKKQISVYGQESNPTTWKLAAMNMVIRGIDFNFGKKNADSFLDDQHPDLRADFVMTNPPFNMKDWWHEKLADDPRWTINTNGEKRILTPPTGNANFAWMLHMLYHLAPTGSMALLLANGSMSSNTNNEGEIRKTLVEQDLVECMVALPGQLFTNTQIPACIWFLTKDKNAKNGKRDRRGQVLFIDARKLGYMKDRVLRDFKDEDIQKLADTFHNWQQEWSEENNQAGFCFSADLALIRKNDFVLTPGRYVGAEAEEDEGHHHHHH	not failed
MSLDKIRYGIMSTAQIVPRFVAGLRESAQAEVRGIASRRLENAQKMAKELAIPVAYGSYEELCKDETIDIIYIPTYNQGHYSAAKLALSQGKPVLLEKPFTLNAAEAEELFAIAQEQGVFLMEAQKSVFLPITQKVKATIQEGGLGEILWVQSVTAYPNVDHIPWFYSREAGGGALHGSGSYPLQYLQYVLGKEIQEVTGTATYQQGATDSQCNLALKFAEGTLGNIFINVGLKIPSEMTICGTKGQIVIPNFWKTDCAYYTDAQGNTVKWSEQFTSEFTYEINHVNQCLQDKKLTSPVMTKELTIATVKIVESFYQEWFDNEGHHHHHH	not failed
MSLDMKEHPDAEVQKNQVLTLEDWKEKWVTRHISFHQEQGHQLLKKHLDTFLKGQSGLRVFFPLCGKAIEMKWFADRGHTVVGVEISEIGIREFFAEQNLSYTEEPLAEIAGAKVFKSSSGSISLYCCSIFDLPRANIGKFDRIWDRGALVAINPGDHDRYADIILSLLRKEFQYLVAVLSYDPTKHAGPPFYVPSAELKRLFGTKCSMQCLEEVDALEERHKAWGLDYLFEKLYLLTEK	not failed
MSLEALMNVQFFDHAHHKLKIRGLQSPVDVLTFEGREQLSTPFRYDIQFTSSDKAIAPESVLMQDGAFSLTAPPVQGMPVQTALRTLHGVITGFKHLSSSQDEARYEVRLEPRMALLTRSRQNAIYQNQTVPQIVEKILRERHQMRGQDFVFNLKSEYPAREQVMQYGEDDLTFVSRLLSEVGIWFRFATDARLKIEVIEFYDDQSGYERGLTLPLRHPSGLFDGETEAVWGLNTAYSVVEKSVSTRDYNYREATAEMTTGQHDATGGDNTTYGEAYHYADNFLQQGDKEAAESGAFYARIRHERYLNEQAILKGQSTSSLLMPGLEIKVQGDDAPAVFRKGVLITGVTTSAARDRSYELTFTAIPYSERYGYRPALIPRPVMAGTLPARVTSTVKNDIYAHIDKDGRYRVNLDFDRDTWKPGYESLWVRQSRPYAGDTYGLHLPLLAGTEVSIAFEEGNPDRPYIAGVKHDSAHTDHVTIQNEGHHHHHH	not failed
MSLEDRKNERLPSDLARRATAIIEMPDGVLVTASRGGRYNLPGGKANRGELRSQALIREIREETGLRINSMLYLFDHITPFNAHKVYLCIAQGQPKPQNEIERIALVSSPDTDMDLFVEGRAILRRYARLRNEETAKGEALRALLGLARYIAKVDEGHHHHHH	not failed
MSLEEWIKADSLEKADEYHKRYNYAVTNPVRRKILRMLDKGRSEEEIMQTLSLSKKQLDYHLKVLEAGFCIERVGERWVVTDAGKIVDKIRG	not failed
MSLEGFICKFNRKRRLYIENIMQVRVTGILIEDEKVLLVKQKVANRDWSLPGGRVENGETLEEAMIREMREETGLEVKIKKLLYVCDKPDASPSLLHITFLLERIEGEITLPSNEFDHNPIHDVQMVPINELSYYGFSETFINLISGGLANAGSYQGLKRNIGEGHHHHHH	not failed
MSLEKLDTNTFEQLIYDEGKACLVMFSRKNCHVCQKVTPVLEELRLNYEESFGFYYVDVEEEKTLFQRFSLKGVPQILYFKDGEYKGKMAGDVEDDEVEQMIADVLED	not failed
